{
  "source": "paper PMC5336307",
  "about": "“The thermodynamics of Pr55Gag-RNA interaction regulate the assembly of HIV”",
  "experiment_in_all_cases": "ITC; ITC at 30 C in TBS with 1 mM TCEP (pH not stated); 8 uM (6-10) protein in cell, 40 uM (15-50) nucleic acid in syringe; one-site model",
  "key": {"[1]": {"molecular_target": "T1, Pr55Gag (HIV-1, UniProt P12493 1-500)", "conditions": "protein: recombinant, tags: C-terminal His"}, "[2]": {"molecular_target": "p15NC-SP2-p6 (HIV-1, UniProt P12493 378-500)", "conditions": "protein: recombinant, tags: C-terminal His"}, "[3]": {"molecular_target": "Pr50GagΔp6 (HIV-1, UniProt P12493 1-448)", "conditions": "protein: recombinant, tags: C-terminal His"}, "[4]": {"molecular_target": "p7NC (HIV-1, UniProt P12493 378-432)", "conditions": "protein: recombinant, tags: C-terminal His"}, "[5]": {"molecular_target": "T1, Pr55Gag", "conditions": "protein: recombinant; tags: C-terminal His"}, "[6]": {"molecular_target": "Pr55Gag-TEV (HIV-1, UniProt P12493 1-500)", "conditions": "protein: recombinant; tags: His removed by TEV protease; TEV site remnant at C-term"}, "[7]": {"molecular_target": "Pr50GagΔp6-TEV (HIV-1, UniProt P12493 1-448)", "conditions": "protein: recombinant; tags: His removed by TEV protease; TEV site remnant at C-term"}},
  "data": [
    {"binder": "GGACUAGCGGAGGCUAGUCC (structured_RNA)", "note": "[Psi SL3 RNA (20mer)]", "values": [
      {"measurement": "Kd", "setting": "[1]; hairpin", "result": "81 ± 25", "unit": "nM"},
      {"measurement": "Kd", "setting": "[2]; hairpin", "result": "57 ± 11", "unit": "nM"},
      {"measurement": "Kd", "setting": "[3]; hairpin", "result": "98 ± 3", "unit": "nM"},
      {"measurement": "Kd", "setting": "[4]; hairpin", "result": "48 ± 23", "unit": "nM"}
    ]},
    {"binder": "GAGAAGAGAAGAGAAGAGAA (ssRNA)", "note": "[4x 5'-GAGAA-3' (A-containing)]", "values": [
      {"measurement": "binding signal", "setting": "[5]", "result": "~3 fold stronger Kd than GU-containing RNA (average over sets)"}
    ]},
    {"binder": "GAUGGGAUGGGAUGGGAUGG (ssRNA)", "note": "[4x 5'-GAUGG-3' (GU-containing)]", "values": [
      {"measurement": "binding result", "setting": "[6]", "result": "binds"},
      {"measurement": "binding result", "setting": "[7]", "result": "binds"},
      {"measurement": "binding result", "setting": "[1]", "result": "binds"},
      {"measurement": "binding result", "setting": "[2]", "result": "binds"},
      {"measurement": "binding result", "setting": "[3]", "result": "binds"},
      {"measurement": "binding result", "setting": "[4]", "result": "binds"}
    ]},
    {"binder": "CUUAGAAAUAGGGCAGCAUAGAACAAAAAUAGAGGAA (ssRNA)", "note": "[HIVNL4.3RNA2671-2707]", "values": [
      {"measurement": "binding result", "setting": "[6]", "result": "binds"},
      {"measurement": "binding result", "setting": "[7]", "result": "binds"}
    ]}
  ]
}
